Reference: US20230212182A1 (DUALITY BIOLOGICS SUZHOU, published 2023)

T1: Trop2 (UniProt P09758 27-323, limits assumed)
T1 sequence (looked up): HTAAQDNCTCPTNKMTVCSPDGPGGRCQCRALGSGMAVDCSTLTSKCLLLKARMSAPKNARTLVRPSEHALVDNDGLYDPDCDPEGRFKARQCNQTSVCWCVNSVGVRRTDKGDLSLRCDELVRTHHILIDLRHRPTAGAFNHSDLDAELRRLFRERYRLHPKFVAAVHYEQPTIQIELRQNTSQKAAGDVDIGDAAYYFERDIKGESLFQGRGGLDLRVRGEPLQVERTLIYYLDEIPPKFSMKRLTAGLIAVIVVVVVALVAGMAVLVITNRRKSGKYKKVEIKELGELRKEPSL

B1: Reference ADC-2 (Sacituzumab-Deruxtecan) (antibody, human IgG1, kappa, V domains shown)
VH: QVQLQQSGSELKKPGASVKVSCKASGYTFTNYGMNWVKQAPGQGLKWMGWINTYTGEPTYTDDFKGRFAFSLDTSVSTAYLQISSLKADDTAVYFCARGGFGSSYWYFDVWGQGSLVTVSS
VL: DIQLTQSPSSLSASVGDRVSITCKASQDVSIAVAWYQQKPGKAPKLLIYSASYRYTGVPDRFSGSGSGTDFTLTISSLQPEDFAVYYCQQHYITPLTFGAGTKVEIKR
modifications: Deruxtecan linker-drug conjugated after TCEP reduction of disulfide bonds (cysteine positions not stated); mean n=4.18 per antibody
B2: ADC-II-11-a (antibody, human IgG1, kappa, V domains shown)
VH: B1 VH
VL: B1 VL
modifications: linker-drug L-II-3 conjugated after TCEP reduction of disulfide bonds (cysteine positions not stated); mean n=3.73 per antibody
B3: ADC-III-28 (antibody, human IgG1, kappa, V domains shown)
VH: B1 VH
VL: B1 VL
modifications: linker-drug L-III-30 conjugated after TCEP reduction of disulfide bonds (cysteine positions not stated); mean n=3.67 per antibody

Molecular target: T1, Trop2
Assay: cell-based or functional assay

Binder	IC50 (nM), inhibition of in vitro proliferation of Colo205 cells (CTG, 6 days)	IC50 (nM), inhibition of in vitro proliferation of SK-OV-3 cells (CTG, 6 days)
B1	152 nM	501 nM
B2	121 nM	448 nM
B3	77.6 nM	394 nM
